Molecular target: HLA-A*02:01 (Homo sapiens, UniProt P04439, D140Y/D185E/D98H/E176V/E277Q/G131W/G231S/I119V/I121R/I166T/I218V/L300P/L318F/N151K/N90K/P208A/P217A/Q86G/Q94H/R138H/R169H/T345S)
Assay: MHC binding assay: UV-ligand exchange with beta2m ELISA (peptide exchange yield)
Conditions: binding to HLA-A*02:01
Source text: Candidate peptides for T cell based therapies according to the present invention were further tested for their MHC binding capacity (affinity). The individual peptide-MHC complexes were produced by UV-ligand exchange, where a UV-sensitive peptide is cleaved upon UV-irradiation, and exchanged with the peptide of interest as analyzed. Only peptide candidates that can effectively bind and stabilize the peptide-receptive MHC molecules prevent dissociation of the MHC complexes. To determine the yield of the exchange reaction, an ELISA was performed based on the detection of the light chain ([…]) of stabilized MHC complexes. The assay was performed as generally described in Rodenko et al. (Rodenko et al., 2006).
96 well MAXISorp plates (NUNC) were coated over night with 2 ug/ml streptavidin in PBS at room temperature, washed 4× and blocked for 1 h at 37° C. in 2% BSA containing blocking buffer. […] Peptide-MHC monomers of the UV-exchange reaction were diluted 100 fold in blocking buffer. Samples were incubated for 1h at 37° C., washed four times, incubated with 2 ug/ml HRP conjugated anti-β2m for 1h at 37° C., washed again and detected with TMB solution that is stopped with […]. Absorption was measured at 450 nm. Candidate peptides that show a high exchange yield (preferably higher than 50%, most preferred higher than 75%) are generally preferred for a generation and production of antibodies or fragments thereof, and/or T cell receptors or fragments thereof, as they show sufficient avidity to the MHC molecules and prevent dissociation of the MHC complexes.

Substance | Peptide exchange (MHC class I binding score, peptide exchange yield)
40 (TLLVKVFSV; listed as Homo sapiens) [compound 40] | “+++” (≥50 = +++)
230 (ILVDWLVEV; listed as Homo sapiens) [compound 230] | “+” (≥10% = +)
589 (KLYPQLPAEI; listed as Homo sapiens) [compound 589] | “+++” (≥50 = +++)
27 (ILADIVISA; listed as Homo sapiens) [compound 27] | “+++” (≥50 = +++)
238 (YLISFQTHI; listed as Homo sapiens) [compound 238] | “+++” (≥50 = +++)
210 (LLLNAVLTV; listed as Homo sapiens) [compound 210] | “++” (≥20% = ++)
458 (SLIDKLYNI; listed as Homo sapiens) [compound 458] | “++” (≥20% = ++)
563 (WLLPYNGVTV; listed as Homo sapiens) [compound 563] | “+++” (≥50 = +++)
223 (ALLENIALYL; listed as Homo sapiens) [compound 223] | “+++” (≥50 = +++)
234 (ALMEDTGRQML; listed as Homo sapiens) [compound 234] | “++” (≥20% = ++)
142 (FLFATPVFI; listed as Homo sapiens) [compound 142] | “+++” (≥50 = +++)
428 (KLGHTDILVGV; listed as Homo sapiens) [compound 428] | “++” (≥20% = ++)
241 (SLVEVNPAYSV; listed as Homo sapiens) [compound 241] | “+++” (≥50 = +++)
163 (ALDEMGDLLQL; listed as Homo sapiens) [compound 163] | “+++” (≥50 = +++)
354 (LILEGVDTV; listed as Homo sapiens) [compound 354] | “++” (≥20% = ++)
551 (KLYESLLPFA; listed as Homo sapiens) [compound 551] | “+++” (≥50 = +++)
96 (YIFTDNPAAV; listed as Homo sapiens) [compound 96] | “+++” (≥50 = +++)
405 (ALYDVFLEV; listed as Homo sapiens) [compound 405] | “++” (≥20% = ++)
251 (ALYTGFSILV; listed as Homo sapiens) [compound 251] | “++” (≥20% = ++)

Substance | Peptide exchange (MHC class I binding score, peptide exchange yield)
408 (VLDDSIYLV; listed as Homo sapiens) [compound 408] | “++” (≥20% = ++)
207 (GLTSTNAEV; listed as Homo sapiens) [compound 207] | “++” (≥20% = ++)
254 (TLLAFIMEL; listed as Homo sapiens) [compound 254] | “+++” (≥50 = +++)
101 (ILVGGGALATV; listed as Homo sapiens) [compound 101] | “+++” (≥50 = +++)
87 (ALPEAPAPLLPHIT; listed as Homo sapiens) [compound 87] | “++” (≥20% = ++)
378 (ALGYFVPYV; listed as Homo sapiens) [compound 378] | “+++” (≥50 = +++)
574 (YLLQEPPRTV; listed as Homo sapiens) [compound 574] | “++” (≥20% = ++)
133 (KVLSNIHTV; listed as Homo sapiens) [compound 133] | “++” (≥20% = ++)
161 (ALLEGVNTV; listed as Homo sapiens) [compound 161] | “+++” (≥50 = +++)
308 (SQYSGQLHEV; listed as Homo sapiens) [compound 308] | “+++” (≥50 = +++)
59 (IMEDIILTL; listed as Homo sapiens) [compound 59] | “+++” (≥50 = +++)
566 (VIADGGIQNV; listed as Homo sapiens) [compound 566] | “++” (≥20% = ++)
495 (FIFSEKPVFV; listed as Homo sapiens) [compound 495] | “+++” (≥50 = +++)
36 (YVLEDLEVTV; listed as Homo sapiens) [compound 36] | “++” (≥20% = ++)
476 (ALMERTGYSMV; listed as Homo sapiens) [compound 476] | “+++” (≥50 = +++)
51 (LLPDLEFYV; listed as Homo sapiens) [compound 51] | “++++” (≥75% = ++++)
180 (FQIDPHSGLVTV; listed as Homo sapiens) [compound 180] | “++” (≥20% = ++)
515 (LLQELVLFL; listed as Homo sapiens) [compound 515] | “+++” (≥50 = +++)
89 (YILPTETIYV; listed as Homo sapiens) [compound 89] | “++++” (≥75% = ++++)

Substance | Peptide exchange (MHC class I binding score, peptide exchange yield)
231 (FLSPQQPPLLL; listed as Homo sapiens) [compound 231] | “++” (≥20% = ++)
12 (SLWPDPMEV; listed as Homo sapiens) [compound 12] | “+++” (≥50 = +++)
298 (VMITKLVEV; listed as Homo sapiens) [compound 298] | “+++” (≥50 = +++)
265 (LLFGGTKTV; listed as Homo sapiens) [compound 265] | “++” (≥20% = ++)
229 (RLPGPLGTV; listed as Homo sapiens) [compound 229] | “++” (≥20% = ++)
455 (SLLKEPQKVQL; listed as Homo sapiens) [compound 455] | “++” (≥20% = ++)
522 (TLWYRSPEV; listed as Homo sapiens) [compound 522] | “++” (≥20% = ++)
205 (SLYPGTETMGL; listed as Homo sapiens) [compound 205] | “+++” (≥50 = +++)
252 (LLIGTDVSL; listed as Homo sapiens) [compound 252] | “+++” (≥50 = +++)
353 (YLFEMDSSL; listed as Homo sapiens) [compound 353] | “++” (≥20% = ++)
253 (GLDAATATV; listed as Homo sapiens) [compound 253] | “++” (≥20% = ++)
530 (VMYADIGGMDI; listed as Homo sapiens) [compound 530] | “+++” (≥50 = +++)
437 (SMAPGLVIQAV; listed as Homo sapiens) [compound 437] | “+++” (≥50 = +++)
486 (AVMESIQGV; listed as Homo sapiens) [compound 486] | “+++” (≥50 = +++)
28 (QLLDETSAITL; listed as Homo sapiens) [compound 28] | “+++” (≥50 = +++)
232 (ALLEAQDVELYL; listed as Homo sapiens) [compound 232] | “++” (≥20% = ++)
54 (SLLEQGKEPWMV; listed as Homo sapiens) [compound 54] | “+++” (≥50 = +++)
42 (VLLQKIVSA; listed as Homo sapiens) [compound 42] | “+++” (≥50 = +++)

— patent US10464978B2, “Peptides and combination of peptides for use in immunotherapy against ovarian cancer and other cancers” (immatics biotechnologies GmbH, priority 2015, dated 2019)
